T1: KW27-14 (human CD39 mutant, C-terminal EGFP) (human, UniProt P49961 1-510)
T1 construct: expressed on HEK293F cells; not shown: C-terminal EGFP fusion (vector pCMV3-GFPSpark)
T1 chain: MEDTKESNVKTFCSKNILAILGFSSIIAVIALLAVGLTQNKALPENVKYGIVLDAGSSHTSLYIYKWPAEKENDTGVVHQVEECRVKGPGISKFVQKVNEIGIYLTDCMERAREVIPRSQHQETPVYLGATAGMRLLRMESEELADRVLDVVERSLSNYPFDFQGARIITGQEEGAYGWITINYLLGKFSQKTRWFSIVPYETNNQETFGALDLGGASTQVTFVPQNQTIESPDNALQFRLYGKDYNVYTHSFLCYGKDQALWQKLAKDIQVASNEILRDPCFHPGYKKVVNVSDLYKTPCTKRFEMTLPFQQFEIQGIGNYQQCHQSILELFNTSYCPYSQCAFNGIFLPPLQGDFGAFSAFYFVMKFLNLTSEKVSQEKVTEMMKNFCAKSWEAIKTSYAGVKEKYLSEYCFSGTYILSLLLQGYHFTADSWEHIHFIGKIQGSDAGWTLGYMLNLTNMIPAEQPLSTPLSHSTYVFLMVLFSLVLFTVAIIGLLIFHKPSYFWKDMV

T2: KW27-1 (human CD39 mutant, C-terminal EGFP) (human, UniProt P49961 1-510)
T2 construct: expressed on HEK293F cells; not shown: C-terminal EGFP fusion (vector pCMV3-GFPSpark)
T2 chain: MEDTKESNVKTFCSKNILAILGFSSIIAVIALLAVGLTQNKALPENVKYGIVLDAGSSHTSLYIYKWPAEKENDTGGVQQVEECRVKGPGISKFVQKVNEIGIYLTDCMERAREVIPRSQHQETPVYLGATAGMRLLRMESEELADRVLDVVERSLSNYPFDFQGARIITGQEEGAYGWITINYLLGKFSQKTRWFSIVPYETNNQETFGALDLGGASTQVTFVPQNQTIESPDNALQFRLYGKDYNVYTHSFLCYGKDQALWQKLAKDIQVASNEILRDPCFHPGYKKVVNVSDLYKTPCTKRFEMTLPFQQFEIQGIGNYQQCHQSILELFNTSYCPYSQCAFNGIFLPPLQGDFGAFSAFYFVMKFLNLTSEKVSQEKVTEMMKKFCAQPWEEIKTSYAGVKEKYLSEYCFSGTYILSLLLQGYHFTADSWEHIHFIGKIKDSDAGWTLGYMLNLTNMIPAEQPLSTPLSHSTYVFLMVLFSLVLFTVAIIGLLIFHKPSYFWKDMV

T3: KW27-19 (human CD39 mutant, C-terminal EGFP) (human, UniProt P49961 1-510)
T3 construct: expressed on HEK293F cells; not shown: C-terminal EGFP fusion (vector pCMV3-GFPSpark)
T3 chain: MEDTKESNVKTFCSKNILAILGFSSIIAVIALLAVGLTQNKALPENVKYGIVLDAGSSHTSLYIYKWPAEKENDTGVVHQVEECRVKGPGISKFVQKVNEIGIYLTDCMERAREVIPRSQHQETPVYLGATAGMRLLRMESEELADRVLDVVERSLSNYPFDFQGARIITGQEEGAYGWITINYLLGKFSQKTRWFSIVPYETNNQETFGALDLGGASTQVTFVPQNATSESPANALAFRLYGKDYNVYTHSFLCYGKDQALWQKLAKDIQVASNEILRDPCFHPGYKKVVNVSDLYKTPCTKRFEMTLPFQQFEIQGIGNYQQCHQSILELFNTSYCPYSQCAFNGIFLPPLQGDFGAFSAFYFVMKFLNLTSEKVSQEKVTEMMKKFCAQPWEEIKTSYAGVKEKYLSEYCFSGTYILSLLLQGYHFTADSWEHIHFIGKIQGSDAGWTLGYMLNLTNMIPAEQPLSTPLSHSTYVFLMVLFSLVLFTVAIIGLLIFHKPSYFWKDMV

T4: KW27-15 (human CD39 mutant, C-terminal EGFP) (human, UniProt P49961 1-510)
T4 construct: expressed on HEK293F cells; not shown: C-terminal EGFP fusion (vector pCMV3-GFPSpark)
T4 chain: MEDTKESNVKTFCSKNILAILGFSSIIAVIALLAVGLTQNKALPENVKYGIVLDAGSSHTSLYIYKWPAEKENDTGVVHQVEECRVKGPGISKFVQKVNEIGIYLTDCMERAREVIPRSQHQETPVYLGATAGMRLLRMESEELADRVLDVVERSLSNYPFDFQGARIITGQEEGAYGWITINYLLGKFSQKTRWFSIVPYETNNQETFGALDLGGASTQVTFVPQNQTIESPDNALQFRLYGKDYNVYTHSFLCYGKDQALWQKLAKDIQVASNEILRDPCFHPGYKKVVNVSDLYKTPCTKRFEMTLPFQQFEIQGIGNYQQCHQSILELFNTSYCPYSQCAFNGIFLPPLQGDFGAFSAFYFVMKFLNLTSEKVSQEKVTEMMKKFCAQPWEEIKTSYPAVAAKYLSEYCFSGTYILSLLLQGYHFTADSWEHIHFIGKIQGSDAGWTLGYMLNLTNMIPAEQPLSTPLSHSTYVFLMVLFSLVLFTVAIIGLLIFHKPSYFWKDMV


Tests used:
Experiment in all cases: FACS, mutant-EGFP on HEK293F cells
[1] = target: T1, KW27-14 (human CD39 mutant, C-terminal …)
Experimental: (§1) Briefly, the human CD39 mutants were generated by gene synthesis and then cloned into an expression vector pCMV3-GFPSpark. The vectors containing the validated mutated sequences were prepared and transfected into HEK293F cells. Three days post transfection, the cells were collected to testing EGFP for transgene expression. A range of dosages of antibodies (start from 100 nM, 3-folds dilution, 11 points) were tested on the 20 generated mutants and stained by AlexFluor647 labelled anti-hIgG by FACS. Antibody binding was descripted as relative binding which is derived from AlexFluor647 intensity divided by GFP intensity.

[2] = target: T2, KW27-1 (human CD39 mutant, C-terminal …)
Experimental: as §1

[3] = target: T3, KW27-19 (human CD39 mutant, C-terminal …)
Experimental: as §1

[4] = target: T4, KW27-15 (human CD39 mutant, C-terminal …)
Experimental: as §1

| binding result [1] | binding result [2] | binding result [3] | binding result [4] | Binder |
| --- | --- | --- | --- | --- |
| binds | binds | binds | binds | hu23.H5L5 (antibody, V domains shown, humanized c23) VH: QVQLVQSGAEVKKPGASVKVSCKASGYNLKDTFLHWVRQAPGQGLEWMGRIDPANGNIKYDPKFQGRVTITADTSANTAYMELISLRSEDTAVYYCANSPYYYGSGYRIFDVWGQGTTVTVSS VL: QIVLTQSPATLSLSPGERATLSCSAFSSVNYMHWYQQKPGQAPRLLIYTTSNLASGIPTRFSGSGSGTSYTLTISSLEPEDFAVYYCQQRSTYPFTFGQGTKLEIK |
| binds | binds | binds | binds | c35 (antibody, V domains shown, its making is not described; also called chimeric antibody c35) VH: EVRLQQSGAELVKPGASVKLSCTASGFNIEDTYVHWMKQRPEQGLEWIGRIDPAIDNSKYDPKFQGKATITAVSSSNTAYLQLSSLTSEDTAVYYCALYDGYNVYAMDYWGQGTSVTVSS VL: DIVMTQAAFSNPVTLGTSASISCRSSKNLLHSNGITYLYWYLQRPGQSPQLLIYRASTLASGVPNRFSGSESGTDFTLRISRVEAEDVGVYYCAQLLELPHTFGGGTKLEIK |
| binds | binds | binds | binds | Antibody T895 (antibody, V domains shown, also called 31895) VH: EVQLQQSGPELVKPGASVKMSCKASGYTFTDYNMHWVKQSHGRTLEWIGYIVPLNGGSTFNQKFKGRATLTVNTSSRTAYMELRSLTSEDSAAYYCARGGTRFAYWGQGTLVTVSA VL: not shown |
| binds | binds | binds | binds | c34 (antibody, V domains shown, its making is not described; also called chimeric antibody c34) VH: EIQVQQSGPELVKPGASVKVSCKASGYSFTDYNMYWVKQSHGKSLEWIGFIDPYNGYTSYNQKFKGKATLTIDKSSSTAFMHLNSLTSEDSAVYYCAIYGYDDAYYFDYWGQGTTLTVSS VL: QIVLTQSPAIMSASPGEKVTITCSATSSVSYMHWFRQKPGTSPKLWIYSTSNLASGVPARFSGSGSGTSYSLTISRMAAEDAATYYCQQRITYPFTFGSGTKLEIT |
| binds | binds | binds | binds | Antibody 9-8B (antibody, V domains shown) VH: QIQLVQSGPELKKPGETVKISCKASGYTFTHYGMNWVKQAPGKGLKWMGWINTYTGELTYADDFKGRFAFSLETSASTAYLQINNLKNEDTATYFCARRAYYRYDYVMDYWGQGTSVTVSS VL: DIVMTQSQKFMSTSVGDRVSVTCKASHNVGTNVAWYQQKPGQSPKALIYSASYRYSGVPGRFTGSGSGTDFTLTISNVQSEDLAEYFCHQYNNYPYTFGGGTKLEIK |

Reference: patent US20210388105A1 (ELPISCIENCE SUZHOU BIOPHARMA, published 2021)
